According to PMC3774783:

Biological target: HCoV-OC43 N WT (Human coronavirus OC43, UniProt P33469 1-448)
Assay: SPR

HCoV-OC43 N WT, sequence (P33469 whole entry): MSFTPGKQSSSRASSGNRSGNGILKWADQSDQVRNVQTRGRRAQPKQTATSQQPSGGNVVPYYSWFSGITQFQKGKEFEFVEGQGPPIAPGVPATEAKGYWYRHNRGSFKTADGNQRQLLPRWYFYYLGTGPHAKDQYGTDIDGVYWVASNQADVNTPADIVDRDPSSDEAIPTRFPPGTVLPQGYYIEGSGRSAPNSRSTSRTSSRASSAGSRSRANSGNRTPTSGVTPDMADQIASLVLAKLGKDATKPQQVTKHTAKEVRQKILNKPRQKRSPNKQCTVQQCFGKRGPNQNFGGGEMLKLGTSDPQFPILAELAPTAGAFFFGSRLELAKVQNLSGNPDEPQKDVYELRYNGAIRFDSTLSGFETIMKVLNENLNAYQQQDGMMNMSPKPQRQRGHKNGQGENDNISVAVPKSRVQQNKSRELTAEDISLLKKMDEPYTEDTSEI

Work on UCUAAACUCUAAACUCUAAACUCUAAAC (ssRNA) [(UCUAAAC)4 28-mer] yielded a Kd of 11.7 ± 0.82 nM.
